The labels stand for the following.
B1: BM1 (dacetuzumab) (antibody, human IgG1, kappa, V domains shown)
VH: EVQLVESGGGLVQPGGSLRLSCAASGYSFTGYYIHWVRQAPGKGLEWVARVIPNAGGTSYNQKFKGRFTLSVDNSKNTAYLQMNSLRAEDTAVYYCAREGIYWWGQGTLVTVSS
VL: DIQMTQSPSSLSASVGDRVTITCRSSQSLVHSNGNTFLHWYQQKPGKAPKLLIYTVSNRFSGVPSRFSGSGSGTDFTLTISSLQPEDFATYFCSQTTHVPWTFGQGTKVEIKR
notes: Benchmark antibody, prepared in-house; also called CD40-BM1; benchmark
B2: mouse anti-CD40 monoclonal antibody C1H1 (antibody, V domains shown)
VH: EVKLVESGGGLVKPGASLKLSCAASGFTFSNYGISWVRQTSDKRLEWVASISSGGDNTYYPDNVKGRFTISRENAKNTLYLQMSSLKSEDTALYYCARAGEKAMDYWGQGTSVTVSS
VL: DIVLTQSPVTLSVTPGDSVSLSCRASQTINNNLHWYQQKSHESPRLLIKYASQSISGIPSRFSGSGSGTDFTLSINSVETEDFGIYFCQQFSSWPLTFGAGTKLELK
notes: Parent mouse antibody from a hybridoma; the mouse constant regions are not; also called Mouse C1H1
B3: chimeric antibody C1H1 (antibody, human IgG1, kappa, V domains shown)
VH: B2 VH
VL: DIVLTQSPVTLSVTPGDSVSLSCRASQTINNNLHWYQQKSHESPRLLIKYASQSISGIPSRFSGSGSGTDFTLSINSVETEDFGIYFCQQFSSWPLTFGAGTKLELKR
notes: also called Chimeric C1H1
B4: BM2 (selicrelumab) (antibody, human IgG2, kappa, V domains shown)
VH: not shown
VL: DIQMTQSPSSVSASVGDRVTITCRASQGIYSWLAWYQQKPGKAPNLLIYTASTLQSGVPSRFSGSGSGTDFTLTISSLQPEDFATYYCQQANIFPLTFGGGTKVEIKR
notes: Benchmark antibody, prepared in-house; also called CD40-BM2; benchmark
B5: humanized antibody huC1H1-V1 (antibody, human IgG2, kappa, V domains shown)
VH: EVQLVESGGGLVKPGGSLRLSCAASGFTFSNYGISWVRQAPGKGLEWVASISSGGDNTYYPDNVKGRFTISRDNAKNSLYLQMNSLRAEDTAVYYCARAGEKAMDYWGQGTLVTVSS
VL: EIVLTQSPATLSLSPGERATLSCRASQTINNNLHWYQQKPGQAPRLLIKYASQSISGIPARFSGSGSGTDFTLTISSLEPEDFAVYFCQQFSSWPLTFGGGTKVEIKR
notes: Human IgG2 / kappa
B6: humanized antibody huC1H1-V2 (antibody, human IgG2, kappa, V domains shown)
VH: B5 VH with A49S
VL: B5 VL
notes: Human IgG2 / kappa

Changes are numbered by the printed parent chain.

For the first assay, the target named is T1, human CD40-Fc protein (human, biotinylated (sites not given) in the capture ELISA and the benchmark blocking ELISA; not biotinylated in the ligand blocking ELISA).
T1 construct: also called biotinylated human CD40-Fc
The assay can be described thus: capture ELISA: antibody captured on coated goat anti-human IgG F(ab')2, biotinylated human CD40-Fc 1.15 nM, streptavidin-HRP, OD(450-630). The protocol: The plate was washed once with a washing buffer (PBS+0.05% v/v of Tween-20, PBST) and then blocked with 200 μL/well blocking buffer (PBST containing 5% w/v of skim milk) for 2 h at 37° C. The plate was washed 4 times, and the anti-CD40 antibody of the present application, BM1, BM2, and a negative control hIgG (human immunoglobulin for intravenous injection (pH 4), Hualan Biological Engineering Inc.) serially 5-fold diluted from 66.7 nM in a PBST containing 2.5% w/v of skim milk was added at 100 μL per well. The plate was incubated for 40 min at 37° C. and washed 4 times. A biotinylated human CD40-Fc protein (amino acid residues 21-193 of SEQ ID NO: 30 linked to the N terminus of amino acid residues 99-330 of SEQ ID NO: 28, dissolved in PBST containing 2.5% w/v of skim milk at a concentration of 1.15 nM) was added at 100 μL/well to a 96-well plate coated with the anti-CD40 antibody. The plate was incubated at 37° C. for 40 min and washed 4 times. An HRP-labeled streptavidin (diluted at 1:10000 in PBST, Jackson Immuno Research, Cat. No. 016-030-084) was added at 100 μL/well, and the plate was incubated at 37° C. for another 40 min. After the last wash, 100 μL/well of ELISA substrate TMB (Innoreagents, Cat. No. TMB-S-002) was added and the plate was incubated at room temperature. After 3-10 min, the reaction was stopped by adding 1 M H₂SO₄ at 50 µL/well, and the absorbance of each well was read on a microplate reader using the dual wavelength mode (TMB detection wavelength: 450 nm, reference wavelength: 630 nm). Curves of OD(450-630) values vs. antibody concentration were plotted. Data were analyzed using Graphpad Prism software, and EC₅₀ values were obtained.
Background: In an ELISA, binding on a coated surface is turned into a signal by an enzyme label.
For the molecule B1, the EC50 (usually the concentration needed to bring the measured effect to its halfway point) amounted to 0.101 nM.

B2 had an EC50 of 0.141 nM.

The molecule B3 showed an EC50 of 0.198 nM.

B4 showed an EC50 of 0.72 nM.

Take B5: the EC50 amounted to 0.574 nM.

Take B6: a half-maximal effect (EC50) was put at 0.424 nM.

The target of a further assay is T2, full-length human CD40 on 293T-NF-κB-Luc-CD40 reporter cells (human, UniProt P25942 21-277).
T2 construct: Stably expressed full-length human CD40; also called uniprot P25942-1
The assay can be described thus: flow cytometry (FACS) on 293T-CD40 cells stably expressing full-length human CD40, PE-labeled goat anti-human IgG Fc, MFI. The protocol: The binding of the anti-CD40 antibody to 293T-CD40 cells (prepared by Biosion) that stably express full-length human CD40 (uniprot #P25942-1, SEQ ID NO: 30) on the cell membrane was measured by flow cytometry (FACS). According to the instructions of lipofectamine 3000 transfection reagent (Thermo Fisher), 293T-CD40 cells were prepared by transfecting 293T cells with pCMV-T-P plasmid inserted with CD40 coding sequence between EcoRI and XbaI loci. Specifically, 293T-CD40 cells were harvested from cell culture flasks, washed twice, and resuspended in FACS buffer (phosphate buffered saline (PBS) containing 2% v/v of fetal bovine serum). The anti-CD40 antibody of the present application or the benchmark serially 4-fold diluted in the FACS buffer from 80 nM was added at 100 μL/well to a 96-well plate containing 2×10⁵ cells/well. The plate was incubated in an ice bath for 40 min. After the cells were washed twice with the FACS buffer, an affinity-purified R-phycoerythrin-labeled goat anti-human IgG (Fcγ fragment-specific, Jackson Immuno Research, Cat. No. 109-115-098, 1:1000 diluted in the FACS buffer) was added at 100 μL per well. After incubation at 4° C. for 40 min in the dark, the cells were washed thrice and resuspended in the FACS buffer. Fluorescence values were measured using Becton Dickinson FACS Canto II-HTS, and curves of fluorescence value vs. antibody concentration were plotted. Data were analyzed using Graphpad Prism software, and EC₅₀ values were obtained.
Regarding B1, the EC50 was 0.375 nM.

In turn, B2 showed an EC50 of 1.44 nM.

As for B3, the midpoint of the response, the EC50, lay at 2.13 nM.

Consider B4, for which the EC50 was 3.52 nM.

Molecule B5 showed an EC50 of 4.95 nM.

With B6, the EC50 amounted to 4.64 nM.

In another assay the target is T1, human CD40-Fc protein. The assay can be described thus: competitive ELISA: human CD40-Fc coated, antibody titrated, blocked ligand biotinylated human CD40L-his (95 ng/mL), streptavidin-HRP, OD(450-630). The protocol:
The ability of the anti-CD40 antibody to block the binding of CD40 to CD40L was determined by competitive ELISA. Briefly, a human CD40-Fc protein (amino acid residues 21-193 of SEQ ID NO: 30 linked to the N terminus of amino acid residues 99-330 of SEQ ID NO: 28) dissolved in the immobilization buffer (carbonate/bicarbonate buffer) at a concentration of 2 μg/mL was immobilized on a 96-well plate at 100 μL/well and incubated overnight at 4° C. The next day, the plate was washed once with a washing buffer (PBS+0.05% v/v of Tween-20, PBST) before a PBST containing 5% w/v of skim milk was added. The plate was then incubated at 37° C. for 2 h for blocking. The plate was then washed 4 times with the washing buffer.
The anti-CD40 antibody of the present application or the benchmark was serially 5-fold diluted from 200 nM in a PBST containing 2.5% w/v of skim milk, and the serially diluted anti-CD40 antibody or benchmark was added at 100 μL/well to a plate coated with CD40-Fc protein and incubated at 37° C. for 40 min. The plate was then washed 4 times with the washing buffer before a biotinylated human CD40L-his protein (Sino Biological Inc., Cat. No. 10239-H08E, 95 ng/mL) was added at 100 μL per well. The plate was then incubated for 40 min at 37° C. The plate was washed again with the washing buffer. Then, an HRP-labeled streptavidin (Jackson Immunoresearch, Cat. No. 016-030-084, 1:10000 diluted in PBST buffer) was added at 100 μL/well and the plate was incubated at 37° C. for 40 min. The plate was washed again with the washing buffer. Finally, TMB was added and the reaction was stopped by adding 1 M H₂SO₄. The absorbance of each well was read on a microplate reader using the dual wavelength mode (TMB detection wavelength: 450 nm, reference wavelength: 630 nm). Curves of OD(450-630) values vs. antibody concentration were plotted. Data were analyzed using Graphpad Prism software, and IC₅₀ values were obtained.
As to B1, the IC50 (in general, the concentration needed to halve the response being measured) amounted to 2.01 nM.

B2 gave an IC50 of 6.46 nM.

The molecule B3 gave an IC50 of 6.97 nM.

In turn, B4 registered an IC50 of 7.22 nM.

For the molecule B5, the IC50 stood at 7.91 nM.

In the case of B6, the IC50 turned out to be 6.1 nM.

Values taken from US20240398942A1 (CHIA TAI TIANQING PHARMACEUTICAL GROUP, published 2024).
